To fix the notation:
B1: Zyxin (Homo sapiens), Q15942 (parent)
chain: MAAPRPSPAISVSVSAPAFYAPQKKFGPVVAPKPKVNPFRPGDSEPPPAPGAQRAQMGRVGEIPPPPPEDFPLPPPPLAGDGDDAEGALGGAFPPPPPPIEESFPPAPLEEEIFPSPPPPPEEEGGPEAPIPPPPQPREKVSSIDLEIDSLSSLLDDMTKNDPFKARVSSGYVPPPVATPFSSKSSTKPAAGGTAPLPPWKSPSSSQPLPQVPAPAQSQTQFHVQPQPQPKPQVQLHVQSQTQPVSLANTQPRGPPASSPAPAPKFSPVTPKFTPVASKFSPGAPGGSGSQPNQKLGHPEALSAGTGSPQPPSFTYAQQREKPRVQEKQHPVPPPAQNQNQVRSPGAPGPLTLKEVEELEQLTQQLMQDMEHPQRQNVAVNELCGRCHQPLARAQPAVRALGQLFHIACFTCHQCAQQLQGQQFYSLEGAPYCEGCYTDTLEKCNTCGEPITDRMLRATGKAYHPHCFTCVVCARPLEGTSFIVDQANRPHCVPDYHKQYAPRCSVCSEPIMPEPGRDETVRVVALDKNFHMKCYKCEDCGKPLSIEADDNGCFPLDGHVLCRKCHTARAQT

The first test covers variants of B1. Conditions: with enah_human ENAH.
In the case of MAAPRPSPAISVSVSAPAFYAPQKKFGPVVAPKPKVNPFRPGDSEPPPAPGAQRAQMGRVGEIPPPPPEDAPLPPPPLAGDGDDAEGALGGAAPPPPPPIEESAPPAPLEEEIFPSPPPPPEEEGGPEAPIPPPPQPREKVSSIDLEIDSLSSLLDDMTKNDPFKARVSSGYVPPPVATPFSSKSSTKPAAGGTAPLPPWKSPSSSQPLPQVPAPAQSQTQFHVQPQPQPKPQVQLHVQSQTQPVSLANTQPRGPPASSPAPAPKFSPVTPKFTPVASKFSPGAPGGSGSQPNQKLGHPEALSAGTGSPQPPSFTYAQQREKPRVQEKQHPVPPPAQNQNQVRSPGAPGPLTLKEVEELEQLTQQLMQDMEHPQRQNVAVNELCGRCHQPLARAQPAVRALGQLFHIACFTCHQCAQQLQGQQFYSLEGAPYCEGCYTDTLEKCNTCGEPITDRMLRATGKAYHPHCFTCVVCARPLEGTSFIVDQANRPHCVPDYHKQYAPRCSVCSEPIMPEPGRDETVRVVALDKNFHMKCYKCEDCGKPLSIEADDNGCFPLDGHVLCRKCHTARAQT [F71A;F93A;F104A], the “effect of a mutation on the interaction” value is listed as “decreasing interaction”.

In the case of MAAPRPSPAISVSVSAPAFYAPQKKFGPVVAPKPKVNPFRPGDSEPPPAPGAQRAQMGRVGEIPPPPPEDFPLPPPPLAGDGDDAEGALGGAAPPPPPPIEESFPPAPLEEEIFPSPPPPPEEEGGPEAPIPPPPQPREKVSSIDLEIDSLSSLLDDMTKNDPFKARVSSGYVPPPVATPFSSKSSTKPAAGGTAPLPPWKSPSSSQPLPQVPAPAQSQTQFHVQPQPQPKPQVQLHVQSQTQPVSLANTQPRGPPASSPAPAPKFSPVTPKFTPVASKFSPGAPGGSGSQPNQKLGHPEALSAGTGSPQPPSFTYAQQREKPRVQEKQHPVPPPAQNQNQVRSPGAPGPLTLKEVEELEQLTQQLMQDMEHPQRQNVAVNELCGRCHQPLARAQPAVRALGQLFHIACFTCHQCAQQLQGQQFYSLEGAPYCEGCYTDTLEKCNTCGEPITDRMLRATGKAYHPHCFTCVVCARPLEGTSFIVDQANRPHCVPDYHKQYAPRCSVCSEPIMPEPGRDETVRVVALDKNFHMKCYKCEDCGKPLSIEADDNGCFPLDGHVLCRKCHTARAQT [F93A], the “effect of a mutation on the interaction” value is reported as “decreasing interaction”.

On to MAAPRPSPAISVSVSAPAFYAPQKKFGPVVAPKPKVNPFRPGDSEPPPAPGAQRAQMGRVGEIPPPPPEDAPLPPPPLAGDGDDAEGALGGAAPPPPPPIEESFPPAPLEEEIFPSPPPPPEEEGGPEAPIPPPPQPREKVSSIDLEIDSLSSLLDDMTKNDPFKARVSSGYVPPPVATPFSSKSSTKPAAGGTAPLPPWKSPSSSQPLPQVPAPAQSQTQFHVQPQPQPKPQVQLHVQSQTQPVSLANTQPRGPPASSPAPAPKFSPVTPKFTPVASKFSPGAPGGSGSQPNQKLGHPEALSAGTGSPQPPSFTYAQQREKPRVQEKQHPVPPPAQNQNQVRSPGAPGPLTLKEVEELEQLTQQLMQDMEHPQRQNVAVNELCGRCHQPLARAQPAVRALGQLFHIACFTCHQCAQQLQGQQFYSLEGAPYCEGCYTDTLEKCNTCGEPITDRMLRATGKAYHPHCFTCVVCARPLEGTSFIVDQANRPHCVPDYHKQYAPRCSVCSEPIMPEPGRDETVRVVALDKNFHMKCYKCEDCGKPLSIEADDNGCFPLDGHVLCRKCHTARAQT [F71A;F93A], for which the “effect of a mutation on the interaction” value is on record as “decreasing interaction”.

As for MAAPRPSPAISVSVSAPAFYAPQKKFGPVVAPKPKVNPFRPGDSEPPPAPGAQRAQMGRVGEIPPPPPEDAPLPPPPLAGDGDDAEGALGGAFPPPPPPIEESFPPAPLEEEIFPSPPPPPEEEGGPEAPIPPPPQPREKVSSIDLEIDSLSSLLDDMTKNDPFKARVSSGYVPPPVATPFSSKSSTKPAAGGTAPLPPWKSPSSSQPLPQVPAPAQSQTQFHVQPQPQPKPQVQLHVQSQTQPVSLANTQPRGPPASSPAPAPKFSPVTPKFTPVASKFSPGAPGGSGSQPNQKLGHPEALSAGTGSPQPPSFTYAQQREKPRVQEKQHPVPPPAQNQNQVRSPGAPGPLTLKEVEELEQLTQQLMQDMEHPQRQNVAVNELCGRCHQPLARAQPAVRALGQLFHIACFTCHQCAQQLQGQQFYSLEGAPYCEGCYTDTLEKCNTCGEPITDRMLRATGKAYHPHCFTCVVCARPLEGTSFIVDQANRPHCVPDYHKQYAPRCSVCSEPIMPEPGRDETVRVVALDKNFHMKCYKCEDCGKPLSIEADDNGCFPLDGHVLCRKCHTARAQT [F71A], the “effect of a mutation on the interaction” value is on record as “decreasing interaction”.

Variants of B1 are the subject of the next test. As to conditions: with enah_mouse Enah.
Consider MAAPRPSPAISVSVSAPAFYAPQKKFGPVVAPKPKVNPFRPGDSEPPPAPGAQRAQMGRVGEIPPPPPEDAPLPPPPLAGDGDDAEGALGGAFPPPPPPIEESFPPAPLEEEIFPSPPPPPEEEGGPEAPIPPPPQPREKVSSIDLEIDSLSSLLDDMTKNDPFKARVSSGYVPPPVATPFSSKSSTKPAAGGTAPLPPWKSPSSSQPLPQVPAPAQSQTQFHVQPQPQPKPQVQLHVQSQTQPVSLANTQPRGPPASSPAPAPKFSPVTPKFTPVASKFSPGAPGGSGSQPNQKLGHPEALSAGTGSPQPPSFTYAQQREKPRVQEKQHPVPPPAQNQNQVRSPGAPGPLTLKEVEELEQLTQQLMQDMEHPQRQNVAVNELCGRCHQPLARAQPAVRALGQLFHIACFTCHQCAQQLQGQQFYSLEGAPYCEGCYTDTLEKCNTCGEPITDRMLRATGKAYHPHCFTCVVCARPLEGTSFIVDQANRPHCVPDYHKQYAPRCSVCSEPIMPEPGRDETVRVVALDKNFHMKCYKCEDCGKPLSIEADDNGCFPLDGHVLCRKCHTARAQT [F71A], for which the “effect of a mutation on the interaction” value is recorded as “disrupting interaction”.
